Results on 125 sequences are retold here after the supplement of paper PMC9112550, “Optimization of the antimicrobial peptide Bac7 by deep mutational scanning” (BMC Biology, 2022).

The test system of this data set is Escherichia coli TOP10. Briefly: shrunken log2 fold change of peptide-encoding DNA abundance (4.5 h post-induction vs induction); higher = less antimicrobial activity (less host growth inhibition). The following applies: time post-induction: 4.5 h; library: site-saturation at positions 5, 18, 19, 20.
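Note: peptides expressed intracellularly from a pBAD plasmid library in pooled LB shake-flask culture, induced with 0.3% L-arabinose, DNA abundance read by NGS, three biological replicates, DESeq2 with apeglm shrinkage.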

Consider RRIRMRPPRLPRPRPRPFKVPRP, for which the “shrunken log2 fold change” value is -0.111.

Take RRIRLRPPRLPRPRPRPKGSPRP: the “shrunken log2 fold change” value is -0.0276.

Take RRIRMRPPRLPRPRPRPCATPRP: the “shrunken log2 fold change” value stood at 2.58.

As for RRIRTRPPRLPRPRPRPYRNPRP, the “shrunken log2 fold change” value is -0.21.

Consider RRIRLRPPRLPRPRPRPRFKPRP, for which the “shrunken log2 fold change” value is 0.0114.

For RRIRLRPPRLPRPRPRPWRVPRP, the “shrunken log2 fold change” value was 0.488.

Take RRIRCRPPRLPRPRPRPSKGPRP: the “shrunken log2 fold change” value is -0.212.

Take RRIRERPPRLPRPRPRPEWLPRP: the “shrunken log2 fold change” value was -0.062.

Regarding RRIRNRPPRLPRPRPRPQIMPRP, the “shrunken log2 fold change” value was -0.127.

For RRIRWRPPRLPRPRPRPCKMPRP, the “shrunken log2 fold change” value is -0.184.

For the sequence RRIRFRPPRLPRPRPRPNKCPRP, the “shrunken log2 fold change” value was -0.273.

For the sequence RRIRLRPPRLPRPRPRPNAMPRP, the “shrunken log2 fold change” value was -0.16.

For RRIRARPPRLPRPRPRPVHLPRP, the “shrunken log2 fold change” value worked out at 0.215.

In the case of RRIRDRPPRLPRPRPRPMVVPRP, the “shrunken log2 fold change” value is -0.0202.

Regarding RRIRCRPPRLPRPRPRPHQAPRP, the “shrunken log2 fold change” value was -0.0274.

As for RRIRFRPPRLPRPRPRPIRTPRP, the “shrunken log2 fold change” value was -0.0861.

On to RRIRNRPPRLPRPRPRPVPKPRP, for which the “shrunken log2 fold change” value stood at 0.883.

In the case of RRIRIRPPRLPRPRPRPVHKPRP, the “shrunken log2 fold change” value is -0.442.

For RRIRCRPPRLPRPRPRPGPYPRP, the “shrunken log2 fold change” value is -0.385.

Turning to RRIRIRPPRLPRPRPRPMRCPRP, the “shrunken log2 fold change” value was -0.0263.

As to RRIRTRPPRLPRPRPRPPPKPRP, the “shrunken log2 fold change” value was found to be 0.82.

For RRIRQRPPRLPRPRPRPIMYPRP, the “shrunken log2 fold change” value is -0.0857.

RRIRSRPPRLPRPRPRPEQQPRP: the “shrunken log2 fold change” value is 0.0303.

Turning to RRIRDRPPRLPRPRPRPFRDPRP, the “shrunken log2 fold change” value is -0.00232.

Turning to RRIRVRPPRLPRPRPRPPGKPRP, the “shrunken log2 fold change” value came to 0.0564.

For the sequence RRIRERPPRLPRPRPRPSPHPRP, the “shrunken log2 fold change” value was -0.229.

In the case of RRIRHRPPRLPRPRPRPMWWPRP, the “shrunken log2 fold change” value was determined as 0.177.

Take RRIRARPPRLPRPRPRPRTQPRP: the “shrunken log2 fold change” value worked out at 0.634.

Take RRIRKRPPRLPRPRPRPVHHPRP: the “shrunken log2 fold change” value is -0.0438.

For RRIRIRPPRLPRPRPRPNWVPRP, the “shrunken log2 fold change” value is -0.231.

On to RRIRLRPPRLPRPRPRPAQLPRP, for which the “shrunken log2 fold change” value came out at 0.166.

Regarding RRIRSRPPRLPRPRPRPPEPPRP, the “shrunken log2 fold change” value worked out at 0.373.

RRIRWRPPRLPRPRPRPLRPPRP: the “shrunken log2 fold change” value came to 0.923.

For RRIRIRPPRLPRPRPRPVYIPRP, the “shrunken log2 fold change” value was -0.154.

Consider RRIRTRPPRLPRPRPRPPQQPRP, for which the “shrunken log2 fold change” value was 0.211.

On to RRIRVRPPRLPRPRPRPYMRPRP, for which the “shrunken log2 fold change” value was determined as 0.162.

Turning to RRIRDRPPRLPRPRPRPNVIPRP, the “shrunken log2 fold change” value is -0.0253.

As for RRIRPRPPRLPRPRPRPCSEPRP, the “shrunken log2 fold change” value is -0.00276.

Take RRIRYRPPRLPRPRPRPCCQPRP: the “shrunken log2 fold change” value came to 0.0173.

As to RRIRMRPPRLPRPRPRPHAHPRP, the “shrunken log2 fold change” value is -0.0269.

As to RRIRYRPPRLPRPRPRPAVSPRP, the “shrunken log2 fold change” value was determined as 0.0627.

Turning to RRIRNRPPRLPRPRPRPICMPRP, the “shrunken log2 fold change” value was -0.195.

In the case of RRIRMRPPRLPRPRPRPRRWPRP, the “shrunken log2 fold change” value is 0.881.

For RRIRLRPPRLPRPRPRPEWCPRP, the “shrunken log2 fold change” value was -0.131.

For RRIRIRPPRLPRPRPRPLSCPRP, the “shrunken log2 fold change” value was -0.253.

In the case of RRIRFRPPRLPRPRPRPHRAPRP, the “shrunken log2 fold change” value is -0.0573.

On to RRIRCRPPRLPRPRPRPHDKPRP, for which the “shrunken log2 fold change” value is -0.363.

For the sequence RRIRARPPRLPRPRPRPSWTPRP, the “shrunken log2 fold change” value was -0.392.

Regarding RRIRCRPPRLPRPRPRPMCVPRP, the “shrunken log2 fold change” value is -0.185.

On to RRIRFRPPRLPRPRPRPEWKPRP, for which the “shrunken log2 fold change” value is 0.0211.

For the sequence RRIRDRPPRLPRPRPRPILCPRP, the “shrunken log2 fold change” value was determined as 0.0322.

Regarding RRIRTRPPRLPRPRPRPENAPRP, the “shrunken log2 fold change” value was -0.49.

As to RRIRDRPPRLPRPRPRPNKPPRP, the “shrunken log2 fold change” value was -0.0743.

RRIRERPPRLPRPRPRPQNIPRP: the “shrunken log2 fold change” value was -0.837.

RRIRYRPPRLPRPRPRPMCWPRP: the “shrunken log2 fold change” value is -0.213.

Take RRIRQRPPRLPRPRPRPDPVPRP: the “shrunken log2 fold change” value is 0.0565.

With RRIRSRPPRLPRPRPRPGNEPRP, the “shrunken log2 fold change” value was -0.183.

As for RRIRLRPPRLPRPRPRPFRMPRP, the “shrunken log2 fold change” value is -0.0132.

Take RRIRERPPRLPRPRPRPKEKPRP: the “shrunken log2 fold change” value turned out to be 0.121.

As for RRIRYRPPRLPRPRPRPCPHPRP, the “shrunken log2 fold change” value is -0.0263.

In the case of RRIRLRPPRLPRPRPRPNDAPRP, the “shrunken log2 fold change” value was found to be 0.229.

RRIRWRPPRLPRPRPRPVTSPRP: the “shrunken log2 fold change” value was 0.112.

For the sequence RRIRNRPPRLPRPRPRPQRSPRP, the “shrunken log2 fold change” value is 0.0667.

RRIRTRPPRLPRPRPRPACEPRP: the “shrunken log2 fold change” value came out at 0.0463.

RRIRGRPPRLPRPRPRPWWMPRP: the “shrunken log2 fold change” value stood at 0.322.

As to RRIRCRPPRLPRPRPRPNMVPRP, the “shrunken log2 fold change” value is 0.0392.

Take RRIRMRPPRLPRPRPRPKGQPRP: the “shrunken log2 fold change” value came out at 1.28.

Take RRIRTRPPRLPRPRPRPCAGPRP: the “shrunken log2 fold change” value is -0.0463.

As for RRIRKRPPRLPRPRPRPWFRPRP, the “shrunken log2 fold change” value stood at 0.00108.

Consider RRIRQRPPRLPRPRPRPYERPRP, for which the “shrunken log2 fold change” value came out at 0.074.

On to RRIRVRPPRLPRPRPRPTYQPRP, for which the “shrunken log2 fold change” value is -0.388.

For the sequence RRIRCRPPRLPRPRPRPGCTPRP, the “shrunken log2 fold change” value was -0.279.

As to RRIRPRPPRLPRPRPRPAWPPRP, the “shrunken log2 fold change” value was found to be 0.6.

In the case of RRIRCRPPRLPRPRPRPQVIPRP, the “shrunken log2 fold change” value was -0.386.

As for RRIRRRPPRLPRPRPRPWISPRP, the “shrunken log2 fold change” value was -0.382.

Take RRIRWRPPRLPRPRPRPPTPPRP: the “shrunken log2 fold change” value amounted to 1.4.

With RRIRLRPPRLPRPRPRPLFRPRP, the “shrunken log2 fold change” value is -0.388.

In the case of RRIRDRPPRLPRPRPRPTSTPRP, the “shrunken log2 fold change” value was found to be 0.231.

Turning to RRIRTRPPRLPRPRPRPRMCPRP, the “shrunken log2 fold change” value was found to be 0.00183.

With RRIRYRPPRLPRPRPRPSPPPRP, the “shrunken log2 fold change” value was -0.469.

RRIRERPPRLPRPRPRPTVHPRP: the “shrunken log2 fold change” value is -0.42.

Consider RRIRLRPPRLPRPRPRPGTCPRP, for which the “shrunken log2 fold change” value is 0.0703.

Consider RRIRHRPPRLPRPRPRPEVKPRP, for which the “shrunken log2 fold change” value was determined as 0.104.

RRIRARPPRLPRPRPRPVGMPRP: the “shrunken log2 fold change” value came out at 0.376.

RRIRWRPPRLPRPRPRPICSPRP: the “shrunken log2 fold change” value was -0.199.

With RRIRTRPPRLPRPRPRPVFVPRP, the “shrunken log2 fold change” value was determined as 0.0253.

On to RRIRARPPRLPRPRPRPTKEPRP, for which the “shrunken log2 fold change” value was 0.0091.

With RRIRMRPPRLPRPRPRPEGFPRP, the “shrunken log2 fold change” value was 2.81.

Regarding RRIRARPPRLPRPRPRPWCFPRP, the “shrunken log2 fold change” value was 0.0976.

Turning to RRIRRRPPRLPRPRPRPKVAPRP, the “shrunken log2 fold change” value was 0.0861.

On to RRIRMRPPRLPRPRPRPDWRPRP, for which the “shrunken log2 fold change” value stood at 0.276.

On to RRIRDRPPRLPRPRPRPLKNPRP, for which the “shrunken log2 fold change” value was determined as 0.0245.

On to RRIRCRPPRLPRPRPRPKMMPRP, for which the “shrunken log2 fold change” value is -0.113.

Consider RRIRKRPPRLPRPRPRPFDNPRP, for which the “shrunken log2 fold change” value stood at 0.057.

Consider RRIRKRPPRLPRPRPRPCMQPRP, for which the “shrunken log2 fold change” value turned out to be 0.121.

As to RRIRWRPPRLPRPRPRPWTLPRP, the “shrunken log2 fold change” value was -0.0248.

For RRIRKRPPRLPRPRPRPHIVPRP, the “shrunken log2 fold change” value was -0.0154.

As to RRIRVRPPRLPRPRPRPMVWPRP, the “shrunken log2 fold change” value was found to be 0.117.

Regarding RRIRFRPPRLPRPRPRPCNQPRP, the “shrunken log2 fold change” value is -0.649.

Consider RRIRYRPPRLPRPRPRPMWGPRP, for which the “shrunken log2 fold change” value is 0.171.

Regarding RRIRARPPRLPRPRPRPTWQPRP, the “shrunken log2 fold change” value was determined as 0.4.

RRIRFRPPRLPRPRPRPYNWPRP: the “shrunken log2 fold change” value was -0.0539.

RRIRERPPRLPRPRPRPPEAPRP: the “shrunken log2 fold change” value stood at 0.192.

For RRIRNRPPRLPRPRPRPAVWPRP, the “shrunken log2 fold change” value was 0.583.

With RRIRPRPPRLPRPRPRPPRCPRP, the “shrunken log2 fold change” value was found to be 0.408.

With RRIRDRPPRLPRPRPRPRCSPRP, the “shrunken log2 fold change” value was -0.0967.

For RRIRPRPPRLPRPRPRPAHMPRP, the “shrunken log2 fold change” value was -0.0534.

Take RRIRIRPPRLPRPRPRPPVMPRP: the “shrunken log2 fold change” value was determined as 0.126.

For RRIRPRPPRLPRPRPRPGFYPRP, the “shrunken log2 fold change” value is -0.421.

On to RRIRFRPPRLPRPRPRPITQPRP, for which the “shrunken log2 fold change” value is -0.278.

Take RRIRDRPPRLPRPRPRPRTEPRP: the “shrunken log2 fold change” value turned out to be 0.0904.

For the sequence RRIRMRPPRLPRPRPRPNSKPRP, the “shrunken log2 fold change” value is -0.129.

Regarding RRIRFRPPRLPRPRPRPAPRPRP, the “shrunken log2 fold change” value was 0.84.

On to RRIRWRPPRLPRPRPRPHIRPRP, for which the “shrunken log2 fold change” value amounted to 0.00375.

RRIRYRPPRLPRPRPRPDLHPRP: the “shrunken log2 fold change” value was -0.0267.

Turning to RRIRGRPPRLPRPRPRPNKKPRP, the “shrunken log2 fold change” value came out at 0.0152.

On to RRIRWRPPRLPRPRPRPKGIPRP, for which the “shrunken log2 fold change” value is -0.0761.

With RRIRERPPRLPRPRPRPKPEPRP, the “shrunken log2 fold change” value was determined as 0.12.

Turning to RRIRFRPPRLPRPRPRPQINPRP, the “shrunken log2 fold change” value is -0.239.

In the case of RRIRSRPPRLPRPRPRPILAPRP, the “shrunken log2 fold change” value is -0.162.

On to RRIRPRPPRLPRPRPRPAVKPRP, for which the “shrunken log2 fold change” value was 0.171.

For the sequence RRIRARPPRLPRPRPRPLTIPRP, the “shrunken log2 fold change” value worked out at 0.0223.

Regarding RRIRHRPPRLPRPRPRPKHVPRP, the “shrunken log2 fold change” value is -0.15.

RRIRWRPPRLPRPRPRPDDTPRP: the “shrunken log2 fold change” value was 0.222.

RRIRERPPRLPRPRPRPFIQPRP: the “shrunken log2 fold change” value was -0.176.
